This note sets out measurements from patent publication US20150037340A1 (PEIRRE FABRE MEDICAMENT, published 2015).

Test [1] deals with monkey Axl receptor expressed on the surface of COS7 cells (African green monkey). Nature of the test: flow cytometry on COS7 cells, goat anti-mouse Alexa 488.
Test [2] addresses T1, recombinant mouse Axl-Fc (R and D systems, cat No 854-AX/CF) (mouse, UniProt Q00993 19-445).
T1 construct: extracellular domain; Bought protein; also called rmAxl-Fc; murine Axl ECD domain; not shown: Fc portion (coating control with anti-human IgG Fc)
T1 sequence (looked up): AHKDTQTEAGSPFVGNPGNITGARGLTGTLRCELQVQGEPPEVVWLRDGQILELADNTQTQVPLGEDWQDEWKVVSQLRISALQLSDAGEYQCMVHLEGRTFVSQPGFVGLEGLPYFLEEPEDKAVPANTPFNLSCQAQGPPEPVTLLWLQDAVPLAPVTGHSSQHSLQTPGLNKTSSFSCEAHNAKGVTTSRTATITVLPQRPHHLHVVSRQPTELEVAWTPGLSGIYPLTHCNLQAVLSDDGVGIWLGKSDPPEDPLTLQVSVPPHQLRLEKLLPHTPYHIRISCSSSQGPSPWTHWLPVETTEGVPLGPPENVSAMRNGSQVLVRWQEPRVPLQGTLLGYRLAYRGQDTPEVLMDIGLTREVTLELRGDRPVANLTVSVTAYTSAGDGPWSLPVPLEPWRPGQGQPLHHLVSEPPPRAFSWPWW
Briefly: ELISA on coated rmAxl-Fc, detection with goat anti-mouse IgG-HRP. The protocol:
Briefly, the recombinant mouse Axl-Fc (R and D systems, cat No 854-AX/CF) proteins were coated overnight at 4° C. to Immulon II 96-well plates and, after a 1 h blocking step with a 0.5% gelatine solution, the 1613F12 purified antibody was added for one additional hour at 37° C. at starting concentration of 5 μg/m (3.33 10⁻⁸M). Then ½ serial dilutions were done over 12 columns. Plates were then washed and a goat anti-mouse (Jackson) specific IgG HRP was added for 1 h at 37° C. Reaction development was performed using the TMB substrate solution. […] Coating controls are performed in presence of a goat anti-human IgG Fc polyclonal serum coupled with HRP (Jackson, ref 109-035-098) and/or in presence of a HRP-coupled anti-Histidine antibody (R and D Systems, ref: MAB050H).

For test [3], the target named is T2, recombinant human Dtk-Fc (R and D Systems, cat No 859-DK) (human, UniProt Q06418 41-428).
T2 construct: Bought protein; also called rhDtk-Fc; rhDtk; not shown: Fc portion
T2 sequence (looked up): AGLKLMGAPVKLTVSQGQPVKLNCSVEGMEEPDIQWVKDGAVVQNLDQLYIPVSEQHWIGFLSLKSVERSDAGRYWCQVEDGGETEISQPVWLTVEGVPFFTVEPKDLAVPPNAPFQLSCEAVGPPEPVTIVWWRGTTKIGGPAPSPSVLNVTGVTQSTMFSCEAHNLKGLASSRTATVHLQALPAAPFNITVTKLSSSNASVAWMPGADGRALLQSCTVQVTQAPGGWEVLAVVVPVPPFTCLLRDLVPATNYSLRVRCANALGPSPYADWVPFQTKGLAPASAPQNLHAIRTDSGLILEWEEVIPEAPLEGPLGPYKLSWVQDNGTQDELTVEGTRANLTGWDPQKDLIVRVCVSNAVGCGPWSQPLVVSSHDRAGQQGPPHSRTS
Nature of the test: ELISA on coated rhDtk-Fc, detection with goat anti-mouse IgG-HRP. The protocol:
(§1) Then ½ serial dilutions were done over 12 columns. Plates were washed and a goat anti-mouse (Jackson) specific IgG-HRP was added for 1 h at 37° C. Reaction development was performed using the TMB substrate solution. […] Coating controls were performed in presence of a goat anti-human IgG Fc polyclonal serum labelled with HRP (Jackson, ref 109-035-098) and/or in presence of a HRP-coupled anti-Histidine antibody (R and D Systems, ref: MAB050H). Results are represented in FIGS. 2A, 2B and 2C, respectively.

The target in test [4] is T3, recombinant human Axl-Fc (R and D Systems, cat No 154-AL / 154AL/CF) (human, UniProt P30530 26-451).
T3 construct: Bought protein; also called rhAxl-Fc; rh Axl-Fc protein; not shown: human IgG Fc portion (detected with anti-human IgG Fc)
T3 sequence: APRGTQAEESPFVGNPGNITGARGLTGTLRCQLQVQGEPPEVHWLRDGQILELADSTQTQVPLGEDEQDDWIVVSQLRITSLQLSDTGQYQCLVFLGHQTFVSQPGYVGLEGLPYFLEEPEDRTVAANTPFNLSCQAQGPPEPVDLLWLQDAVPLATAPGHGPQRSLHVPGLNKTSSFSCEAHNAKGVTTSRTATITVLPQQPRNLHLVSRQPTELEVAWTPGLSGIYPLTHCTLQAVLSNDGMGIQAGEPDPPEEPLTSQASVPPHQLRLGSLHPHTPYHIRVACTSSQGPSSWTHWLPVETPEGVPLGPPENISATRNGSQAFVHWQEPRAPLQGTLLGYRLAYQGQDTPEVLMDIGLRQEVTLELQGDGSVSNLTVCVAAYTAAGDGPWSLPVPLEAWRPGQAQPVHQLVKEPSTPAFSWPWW
Nature of the test: ELISA on coated rhAxl-Fc, detection with goat anti-mouse IgG-HRP. How it is done:
as §1
In general terms: In an ELISA, binding on a coated surface is turned into a signal by an enzyme label.

Test [5] deals with T4, recombinant human Mer-Fc (R and D Systems, cat No 891-MR) (human, UniProt Q12866 26-499, limits assumed).
T4 construct: Bought protein; also called rhMer-Fc; rhMer; not shown: Fc portion
T4 sequence (looked up): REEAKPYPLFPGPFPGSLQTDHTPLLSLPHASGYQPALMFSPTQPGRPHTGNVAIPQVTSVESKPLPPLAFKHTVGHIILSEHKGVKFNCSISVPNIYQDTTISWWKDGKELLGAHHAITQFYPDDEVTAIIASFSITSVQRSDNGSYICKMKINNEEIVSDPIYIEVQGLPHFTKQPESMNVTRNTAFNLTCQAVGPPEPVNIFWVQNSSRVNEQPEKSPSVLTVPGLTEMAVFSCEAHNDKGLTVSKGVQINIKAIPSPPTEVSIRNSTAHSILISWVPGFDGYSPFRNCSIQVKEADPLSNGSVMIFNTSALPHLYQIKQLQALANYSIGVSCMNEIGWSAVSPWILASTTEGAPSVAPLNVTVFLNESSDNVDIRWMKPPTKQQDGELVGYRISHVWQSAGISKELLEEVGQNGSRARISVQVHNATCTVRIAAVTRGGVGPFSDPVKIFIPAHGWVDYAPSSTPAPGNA
Briefly: ELISA on coated rhMer-Fc, detection with goat anti-mouse IgG-HRP. The protocol: as §1

B1: 1613F12 antibody (murine form) (antibody, V domains shown)
VH: EVHLQQSGAELVKPGASVKLSCTASGFNIRDTYIHWVKQRPEQGLEWIGRLDPANGHTKYGPNFQGRATMTSDTSSNTAYLQLSSLTSEDTAVYYCARGAYYYGSSGLFYFDYWGQGTTLSVSS
VL: DVQITQSPSYLATSPGETITINCRASKSISKYLAWYQEKPGKTNKLLIYSGSTLQSGVPSRFSGSGSGTDFTLTISSLEPEDFAMYFCQQHHEYPLTFGAGTELELK
notes: Whole murine monoclonal antibody purified from a hybridoma; a murine IgG1 (9G4) serves as its isotype control; also called m1613F12; monoclonal antibody 1613F12 derived from the hybridoma I-4505
With B1, the EC50 (read off the curve) – broadly, the concentration giving half of the maximal effect – in test [1] was 1 nM; in test [4], roughly 1 nM. Further, the binding result in test [2], in test [3] and in test [5] was “no binding (tested: log -7.5 M)” in each case.
